Blank lines part the entries; values can stand above or below the molecule they belong to.
Tests used:
[1] = molecular target: CD95 (APO-1 or Fas), mouse, endogenous in neural stem cells / brain tissue (mouse) (UniProt P25446); test: cell-based or functional assay
[2] = test system: GSK3β and AKT phosphorylation; test: Western blot of GSK3β and AKT phosphorylation in NSCs; type: cell-based, mouse; conditions: inhibitor pretreatment
Method: Western Blots. Phosphorylated GSK3β (P-Ser9-GSK3β, 1:1000), phosphorylated AKT (P-Ser473-KT, 1:1000), total AKT (T-AKT, 1:1000), Src family kinases (Src, 1:1000), cleaved caspase 3 (1:250), total β-Catenin (1:1000) and phosphorylated src (Tyr416) were purchased from Cell Signaling/New England Biolabs. pp60(c-Src) antibody was purchased from Upstate. Antibody against total GSK3β (T-GSK3β, 1:1000), were purchased from Santa Cruz. The PI3K inhibitor […] (25 μM) and the Src family kinase inhibitor PP2 (20 μM) were purchased from Calbiochem. Cells were preincubated with inhibitors 30 minutes (LY 294002) and 1 hour (PP2) prior to treatment. Cells were lysed for further biochemical analysis. Protein extraction and immunoblotting was performed as previously described.

SVZ NSCs = test: β-III-tubulin expression in adult SVZ neural progenitor cells (flow cytometry); type: cell-based, mouse; conditions: exogenous BDNF alone; data not shown
Excerpt: Lentiviral infections. SVZ NSCs were infected with the lentiviral vector pEIGW and pEIGW-GSK3βS9A at a multiplicity of infection (MOI) of 5. The plasmids were constructed by replacing the eGFP sequence between the EF1α promotor and the WPRE element in pWPTS-eGFP with the IRES-eGFP cassette form pIRES2-eGFP (Clontech, Germany). The recombinant lentiviral vector pEIGW-GSK3βS9A was constructed using pcDNA3 HA-GSK3βS9A. This vector encodes a constitutively active GSK3β mutant containing a serine-to-alanine substitution at residue 9 (GSK3βS9A). Expression of all transgenes was confirmed in infected cells by FACS analysis of GFP expression. The percentage of infected cells was 70-90%.
siRNA. […] 48 h later pp60 src knockdown was assessed by Western Blot. At the same time, cells were stimulated with CD95L-T4 and analysed after 48 h for β-III-tubulin positive cells.
For staining of intracellular markers, cells were harvested, fixed with 4% PFA for 10 min on ice, washed and permeabilized using 0.1% Saponin (Sigma-Aldrich) in PBS with 10% FCS (SAP). […] Cells were washed again three times with SAP and analysed. […] To quantify DNA fragmentation, cells detached with trypsin were centrifuged, washed and fixed with 70% ethanol at −20° C. for 1 h. […] After final washings, all samples were analysed using a FACS-Calibur (Becton Dickinson) and CellQuest Software (Becton Dickinson). […]

mouse adult SVZ NSCs = test: Gene expression by quantitative real-time PCR in adult SVZ NSCs; type: cell-based; conditions: 48 h after stimulation
Method: Real-time Quantitative PCR. 24 h cells after plating cells were stimulated with 1 activation unit of CD95L-T4. After 48 h RNA was isolated using the RNeasy Mini Kit (Qiagen). Real-time quantitative PCR was carried out using Sybr Green core kits (Eurogentec) and Uracil-N-glycosylase (Eurogentec). For determining CD95L induction after global ischemia, the hippocampi were dissected out and stored in RNAlater reagent (Ambion). RNA was extracted using the RNeasy Mini Kit (Qiagen). Real-time quantitative PCR was carried out using Sybr Green core kits (Eurogentec) and Uracil-N-glycosylase (Eurogentec). Primers used for quantitative real-time PCR were designed using Primer 3 software (http://fokker.wi.mit.edu/cgi-bin/primer3/primer3_www.cgi).

neural progenitor cells = test: GFAP expression (glial differentiation) in neural progenitor cells; type: cell-based, mouse; conditions: data not shown
Method: For staining of intracellular markers, cells were harvested, fixed with 4% PFA for 10 min on ice, washed and permeabilized using 0.1% Saponin (Sigma-Aldrich) in PBS with 10% FCS (SAP). Cells were incubated with primary antibody or isotype for 30 min on ice. Cells were washed three time with SAP and incubated with secondary antibody for 30 min on ice. Cells were washed again three times with SAP and analysed. Antibodies used were: anti β-III-tubulin (Chemicon) 1:100, anti GFAP (Chemicon) 1:100 and isotype mouse IgG1 (Sigma) 1:20. Secondary antibody was goat anti-mouse PE 1:100 (Dianova). To quantify DNA fragmentation, cells detached with trypsin were centrifuged, washed and fixed with 70% ethanol at −20° C. for 1 h. Fixed cells were resuspended in a hypotonic lysis buffer (0.1% sodium citrate and 0.1% Triton X-100) containing […] of propidium iodide, incubated at 4° C. overnight. After final washings, all samples were analysed using a FACS-Calibur (Becton Dickinson) and CellQuest Software (Becton Dickinson).
Mouse adult neural stem cell culture. NSCs were isolated as previously described^30. Briefly, 6 week old female C57BL6 mice were sacrificied and tissue from hippocampus, SVZ and spinal cord was dissected out. […]

Chain of CD95 (APO-1 or Fas), mouse, endogenous in neural stem cells / brain tissue (mouse) (P25446 22-327): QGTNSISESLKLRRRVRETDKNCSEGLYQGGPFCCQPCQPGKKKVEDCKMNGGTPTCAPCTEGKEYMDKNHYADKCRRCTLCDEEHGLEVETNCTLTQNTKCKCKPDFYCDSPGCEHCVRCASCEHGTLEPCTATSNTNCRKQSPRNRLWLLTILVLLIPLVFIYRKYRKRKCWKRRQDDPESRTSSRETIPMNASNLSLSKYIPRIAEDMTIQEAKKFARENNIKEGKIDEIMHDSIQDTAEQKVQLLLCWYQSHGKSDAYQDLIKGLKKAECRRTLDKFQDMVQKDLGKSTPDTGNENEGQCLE

PI3K activity at 1 min after treatment with 1 U of CD95L-T4 (relative to untreated = 1) (fold of untreated) [1]: 1.38
PI3K activity at 5 min after treatment with 1 U of CD95L-T4 (relative to untreated = 1) (fold of untreated) [1]: 1.53
β-III-tubulin positive cells, NSCs with control siRNA, after CD95L-T4 [1]: 18.1%
β-III-tubulin positive cells, NSCs with transfection reagent only, after CD95L-T4 [1]: 17.1%
Molecule: mus musculus CD95-Ligand-T4 (mmCD95L-T4) (from UniProt P41047 140-279; P10104 458-484)

Molecule: CC(C)(C)n1nc(-c2ccc(Cl)cc2)c2c(N)ncnc21 [PP2]
phosphorylation of GSK3β ([2]; CD95-induced): inhibited phosphorylation
phosphorylation of AKT ([2]; induced by CD95L): inhibited phosphorylation

B1: BDNF: brain-derived nerve factor, a neurotrophin (protein, UniProt P23560 19-247, looked up)
Neurotrophic factor BDNF …: APMKEANIRGQGGLAYPGVRTHGTLESVNGPKAGSRGLTSLADTFEHVIEELLDEDQKVRPNEENNKDADLYTSRVMLSSQVPLEPPLLFLLEEYKNYLDAANMSMRVRRHSDPARRGELSVCDSISEWVTAADKKTAVDMSGGTVTVLEKVPVSKGQLKQYFYETKCNPMGYTKEGCRGIDKRHWNSQCRTTQSYVRALTMDSKKRIGWRFIRIDTSCVCTLTIKRGR
β-III-tubulin expression (SVZ NSCs): did not increase β-III-tubulin expression

B2: CNTF: inducer of astrocytic differentiation (protein, UniProt P26441 1-200, looked up)
Ciliary neurotrophic factor: MAFTEHSPLTPHRRDLCSRSIWLARKIRSDLTALTESYVKHQGLNKNINLDSADGMPVASTDQWSELTEAERLQENLQAYRTFHVLLARLLEDQQVHFTPTEGDFHQAIHTLLLQVAAFAYQIEELMILLEYKIPRNEADGMPINVGDGGLFEKKLWGLKVLQELSQWTVRSIHDLRFISSHQTGIPARGSHYIANNKKM
BDNF expression (mouse adult SVZ NSCs): induced
Doublecortin like kinase1 (DCLK) expression (mouse adult SVZ NSCs): no effect on DCLK expression
Jagged1 mRNA levels (mouse adult SVZ NSCs): decreased
Neurogenin (Ngn1) expression (mouse adult SVZ NSCs): almost complete loss of Ngn1 mRNA
GFAP expression (neural progenitor cells): enhanced expression of GFAP

Reference: patent US20110300113A1, “Death Receptor CD95 Controls Neurogenesis of Adult Neural Stem Cells in Vivo and in Vitro” (DEUTSCHES KREBSFORSCHUNGSZENTRUM, priority 2006, published 2011)
